Source: the supplement of paper PMC10065799, “High-throughput profiling of sequence recognition by tyrosine kinases and SH2 domains using bacterial peptide display” (eLife, 2023)

Tests used:
SHP2-C SH2 = experiment: SH2 binding enrichment of the phosphorylated peptide, bacterial display (enrichment ratio); higher = better substrate or ligand; peptides without Tyr show the background
c-Src SH2 = experiment: as above
Grb2 SH2 = Grb2 SH2 (UniProt P62993); experiment: as above
FGFR1 = FGFR1 (UniProt P11362); experiment: phosphorylation enrichment, bacterial display (enrichment ratio); higher = better substrate or ligand; peptides without Tyr show the background
c-Abl (mouse) = experiment: as above
Fyn = Fyn (UniProt P06241); experiment: as above
MERTK = MERTK (UniProt Q12866); experiment: as above
Fer (mouse) = experiment: as above
Fes = Fes (UniProt P07332); experiment: as above
Hck = Hck (UniProt P08631); experiment: as above
AncSZ = experiment: as above
Jak2 = Jak2 (UniProt O60674); experiment: as above
EPHB1 = EPHB1 (UniProt P54762); experiment: as above
c-Src = experiment: as above
FGFR3 = FGFR3 (UniProt P22607); experiment: as above
EPHB2 = EPHB2 (UniProt P29323); experiment: as above
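For SH2 binding enrichment of the phosphorylated peptide, bacterial display in this document: peptide library displayed on the E. coli surface as eCPX fusions, selected cells deep-sequenced, score is each peptide's frequency after selection divided by its frequency in the input.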
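For phosphorylation enrichment, bacterial display in this document: 11-residue human phosphosite peptides and single-mutation variants displayed on the E. coli surface, counted by deep sequencing, each peptide's frequency after selection divided by its frequency in the unselected input library; frequency after pTyr selection over input frequency; kinase dosed for 20-30% of maximal phosphorylation in three min.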

Sequence of Fyn (P06241 whole entry, looked up): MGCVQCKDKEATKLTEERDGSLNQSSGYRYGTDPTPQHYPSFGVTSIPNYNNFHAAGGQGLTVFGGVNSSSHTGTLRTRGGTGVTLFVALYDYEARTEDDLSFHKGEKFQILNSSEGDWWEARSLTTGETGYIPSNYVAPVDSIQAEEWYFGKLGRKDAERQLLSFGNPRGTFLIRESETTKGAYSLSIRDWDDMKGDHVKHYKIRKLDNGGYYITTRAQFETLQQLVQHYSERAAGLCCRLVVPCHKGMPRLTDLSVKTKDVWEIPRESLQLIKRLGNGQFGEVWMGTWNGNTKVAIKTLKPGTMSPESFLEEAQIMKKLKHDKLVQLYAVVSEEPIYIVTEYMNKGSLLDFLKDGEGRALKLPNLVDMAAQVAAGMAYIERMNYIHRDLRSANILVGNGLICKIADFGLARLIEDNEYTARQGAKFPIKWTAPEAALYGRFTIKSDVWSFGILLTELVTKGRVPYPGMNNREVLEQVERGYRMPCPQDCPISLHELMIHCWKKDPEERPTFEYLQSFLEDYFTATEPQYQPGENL
Sequence of MERTK (Q12866 whole entry, looked up): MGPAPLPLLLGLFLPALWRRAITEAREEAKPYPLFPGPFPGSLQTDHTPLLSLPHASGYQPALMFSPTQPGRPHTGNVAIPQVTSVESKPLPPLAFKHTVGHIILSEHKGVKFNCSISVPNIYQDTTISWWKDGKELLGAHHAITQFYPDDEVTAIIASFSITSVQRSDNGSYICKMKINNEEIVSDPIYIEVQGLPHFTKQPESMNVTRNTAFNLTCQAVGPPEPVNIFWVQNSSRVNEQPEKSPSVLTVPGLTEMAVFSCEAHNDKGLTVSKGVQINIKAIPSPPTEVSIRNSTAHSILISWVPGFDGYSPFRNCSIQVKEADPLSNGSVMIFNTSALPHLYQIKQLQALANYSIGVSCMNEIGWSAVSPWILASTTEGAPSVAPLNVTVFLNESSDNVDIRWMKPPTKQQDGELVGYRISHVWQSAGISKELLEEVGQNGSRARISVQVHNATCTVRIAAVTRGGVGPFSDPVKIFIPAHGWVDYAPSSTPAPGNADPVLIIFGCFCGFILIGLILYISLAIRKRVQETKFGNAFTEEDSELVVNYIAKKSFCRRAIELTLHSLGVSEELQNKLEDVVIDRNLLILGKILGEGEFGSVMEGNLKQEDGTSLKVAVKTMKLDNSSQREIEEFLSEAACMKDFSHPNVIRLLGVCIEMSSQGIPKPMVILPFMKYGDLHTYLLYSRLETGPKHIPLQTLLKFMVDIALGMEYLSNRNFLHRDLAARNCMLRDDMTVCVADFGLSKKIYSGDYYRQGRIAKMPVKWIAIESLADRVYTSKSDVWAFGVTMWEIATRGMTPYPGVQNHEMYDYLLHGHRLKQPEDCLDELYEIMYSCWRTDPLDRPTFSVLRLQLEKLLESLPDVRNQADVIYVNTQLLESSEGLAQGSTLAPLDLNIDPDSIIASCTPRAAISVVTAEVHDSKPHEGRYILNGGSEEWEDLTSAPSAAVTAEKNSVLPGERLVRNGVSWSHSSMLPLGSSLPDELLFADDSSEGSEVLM
Sequence of Grb2 SH2 (P62993 whole entry, looked up): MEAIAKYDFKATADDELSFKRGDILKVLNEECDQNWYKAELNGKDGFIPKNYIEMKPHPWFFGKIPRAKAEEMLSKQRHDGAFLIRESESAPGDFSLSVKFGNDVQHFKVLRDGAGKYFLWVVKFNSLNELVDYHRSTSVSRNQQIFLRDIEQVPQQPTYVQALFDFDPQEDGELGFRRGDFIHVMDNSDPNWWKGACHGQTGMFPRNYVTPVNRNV
Sequence of FGFR3 (P22607 whole entry, looked up): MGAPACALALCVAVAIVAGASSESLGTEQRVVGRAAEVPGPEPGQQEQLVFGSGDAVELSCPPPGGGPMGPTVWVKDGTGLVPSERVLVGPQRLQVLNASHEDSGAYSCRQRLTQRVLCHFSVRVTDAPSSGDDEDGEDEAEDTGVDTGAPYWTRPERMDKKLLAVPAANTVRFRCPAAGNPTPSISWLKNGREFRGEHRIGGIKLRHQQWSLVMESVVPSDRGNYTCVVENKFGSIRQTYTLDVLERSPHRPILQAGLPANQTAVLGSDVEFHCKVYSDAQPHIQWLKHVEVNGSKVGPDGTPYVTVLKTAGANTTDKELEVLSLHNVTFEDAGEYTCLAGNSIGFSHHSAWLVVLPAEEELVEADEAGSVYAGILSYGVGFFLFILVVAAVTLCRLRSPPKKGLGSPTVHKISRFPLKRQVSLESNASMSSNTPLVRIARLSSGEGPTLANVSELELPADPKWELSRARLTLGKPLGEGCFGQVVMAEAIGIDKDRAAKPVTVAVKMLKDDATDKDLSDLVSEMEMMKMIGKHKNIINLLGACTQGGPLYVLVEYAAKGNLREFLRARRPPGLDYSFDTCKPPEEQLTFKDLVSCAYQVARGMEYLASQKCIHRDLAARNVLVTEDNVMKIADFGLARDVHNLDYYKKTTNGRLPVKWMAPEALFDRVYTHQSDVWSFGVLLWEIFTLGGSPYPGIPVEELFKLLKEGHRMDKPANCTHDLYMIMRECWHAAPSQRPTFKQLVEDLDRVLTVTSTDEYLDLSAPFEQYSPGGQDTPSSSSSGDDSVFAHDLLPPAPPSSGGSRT
Sequence of Fes (P07332 whole entry, looked up): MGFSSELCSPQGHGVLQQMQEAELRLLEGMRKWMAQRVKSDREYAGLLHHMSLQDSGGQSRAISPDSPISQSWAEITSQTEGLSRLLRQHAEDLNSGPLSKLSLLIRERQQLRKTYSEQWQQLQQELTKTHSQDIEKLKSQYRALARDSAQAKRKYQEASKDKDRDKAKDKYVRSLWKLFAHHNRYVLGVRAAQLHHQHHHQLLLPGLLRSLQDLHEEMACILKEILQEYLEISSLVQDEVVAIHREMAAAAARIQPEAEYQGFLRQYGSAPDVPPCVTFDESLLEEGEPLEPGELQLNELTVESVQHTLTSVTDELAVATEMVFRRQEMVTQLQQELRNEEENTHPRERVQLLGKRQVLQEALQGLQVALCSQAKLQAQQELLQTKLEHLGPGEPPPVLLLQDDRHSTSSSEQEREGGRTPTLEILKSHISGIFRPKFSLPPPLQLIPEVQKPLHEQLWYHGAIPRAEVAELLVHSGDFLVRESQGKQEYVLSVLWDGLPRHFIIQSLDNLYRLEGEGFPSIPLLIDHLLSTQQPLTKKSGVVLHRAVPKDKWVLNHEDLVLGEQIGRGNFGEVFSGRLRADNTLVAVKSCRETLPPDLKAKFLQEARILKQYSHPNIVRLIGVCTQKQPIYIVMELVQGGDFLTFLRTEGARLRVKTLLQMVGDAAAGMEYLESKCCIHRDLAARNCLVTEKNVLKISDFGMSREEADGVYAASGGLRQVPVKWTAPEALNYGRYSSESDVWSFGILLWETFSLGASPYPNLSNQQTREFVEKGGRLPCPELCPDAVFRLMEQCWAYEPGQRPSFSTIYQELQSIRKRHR
Sequence of EPHB2 (P29323 whole entry, looked up, the tested form may be a part): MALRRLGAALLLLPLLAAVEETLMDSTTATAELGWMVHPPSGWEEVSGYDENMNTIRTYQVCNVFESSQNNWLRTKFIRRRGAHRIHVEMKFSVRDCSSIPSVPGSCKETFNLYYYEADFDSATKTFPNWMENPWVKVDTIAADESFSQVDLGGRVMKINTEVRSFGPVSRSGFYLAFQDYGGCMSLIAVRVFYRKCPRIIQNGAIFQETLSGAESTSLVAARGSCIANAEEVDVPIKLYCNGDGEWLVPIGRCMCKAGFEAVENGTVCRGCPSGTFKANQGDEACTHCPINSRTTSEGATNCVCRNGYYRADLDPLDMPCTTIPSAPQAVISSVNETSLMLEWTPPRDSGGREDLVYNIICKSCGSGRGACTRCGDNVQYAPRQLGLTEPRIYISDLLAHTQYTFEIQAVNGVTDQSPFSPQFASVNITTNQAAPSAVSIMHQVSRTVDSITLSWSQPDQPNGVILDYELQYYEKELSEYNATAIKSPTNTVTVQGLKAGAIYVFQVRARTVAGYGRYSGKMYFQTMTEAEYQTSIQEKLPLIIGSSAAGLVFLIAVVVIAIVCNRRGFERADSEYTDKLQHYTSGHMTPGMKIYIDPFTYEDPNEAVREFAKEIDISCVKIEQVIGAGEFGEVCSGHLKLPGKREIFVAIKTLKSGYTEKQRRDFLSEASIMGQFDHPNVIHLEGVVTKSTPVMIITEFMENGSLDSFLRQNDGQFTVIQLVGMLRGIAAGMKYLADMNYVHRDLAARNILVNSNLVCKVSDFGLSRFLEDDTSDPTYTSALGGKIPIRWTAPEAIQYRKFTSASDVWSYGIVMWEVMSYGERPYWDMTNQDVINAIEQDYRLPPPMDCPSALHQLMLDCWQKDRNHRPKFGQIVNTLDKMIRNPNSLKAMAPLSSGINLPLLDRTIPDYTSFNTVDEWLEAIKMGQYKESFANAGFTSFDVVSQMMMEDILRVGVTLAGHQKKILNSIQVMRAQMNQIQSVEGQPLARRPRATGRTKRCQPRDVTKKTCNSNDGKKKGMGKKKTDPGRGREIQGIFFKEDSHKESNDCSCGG
Sequence of Hck (P08631 whole entry, looked up): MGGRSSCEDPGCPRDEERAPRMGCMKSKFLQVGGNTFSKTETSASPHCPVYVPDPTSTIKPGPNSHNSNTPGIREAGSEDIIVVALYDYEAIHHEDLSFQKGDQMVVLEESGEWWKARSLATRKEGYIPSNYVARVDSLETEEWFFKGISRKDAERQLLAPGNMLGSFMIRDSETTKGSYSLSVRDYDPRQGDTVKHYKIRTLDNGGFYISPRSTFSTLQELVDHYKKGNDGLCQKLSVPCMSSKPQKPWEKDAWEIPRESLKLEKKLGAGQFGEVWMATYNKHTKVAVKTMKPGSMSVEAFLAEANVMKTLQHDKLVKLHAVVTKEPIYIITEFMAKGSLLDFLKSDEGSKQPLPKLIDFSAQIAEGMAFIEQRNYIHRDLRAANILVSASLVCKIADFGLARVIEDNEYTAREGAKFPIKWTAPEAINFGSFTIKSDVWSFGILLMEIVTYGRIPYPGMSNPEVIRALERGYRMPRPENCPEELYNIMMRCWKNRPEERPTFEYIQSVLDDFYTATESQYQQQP

Sequence	SH2 binding enrichment (SHP2-C SH2)	SH2 binding enrichment (c-Src SH2)	SH2 binding enrichment (Grb2 SH2)	phosphorylation enrichment (FGFR1)	phosphorylation enrichment (c-Abl (mouse))	phosphorylation enrichment (Fyn)	phosphorylation enrichment (MERTK)	phosphorylation enrichment (Fer (mouse))	phosphorylation enrichment (Fes)	phosphorylation enrichment (Hck)	phosphorylation enrichment (AncSZ)	phosphorylation enrichment (Jak2)	phosphorylation enrichment (EPHB1)	phosphorylation enrichment (c-Src)	phosphorylation enrichment (FGFR3)	phosphorylation enrichment (EPHB2)
NAPNSYGRRPT [CDKN2A_Y44_I49T]	0.615	0.567	0.599	0.343	0.79	0.402	0.593	0.38	0.717	0.424	0.784	1.11	0.452	0.528	0.499	0.281
VSGIPYSQPKQ [NEU1_Y251_G252S]	0.646	0.617	0.751	0.389	0.416	0.398	0.326	0.467	0.474	0.358	0.467	0.943	0.234	0.388	0.443	0.4
IKKLIYVFLVI [JAGN1_Y42_H44Y_YF]	1.79	1.22	2	0.716	0.701	0.462	0.547	0.454	1.1	0.393	0.884	0.736	0.556	0.424	0.797	0.547
GFPVHYTDVSN [DNMT3B_Y815]	7.67	3.96	0.793	0.439	0.5	0.43	0.526	0.708	0.653	0.433	0.661	0.51	0.477	0.398	0.686	0.485
PIGRKYKKVRF [F8_Y442_R437P]	0.648	0.568	0.653	0.577	0.661	0.763	0.498	0.459	0.54	0.553	0.828	0.545	0.557	0.587	0.368	0.597
REGAKYVSHSA [ASS1_Y113_G117S]	0.561	0.473	0.878	0.473	0.818	0.454	0.593	0.504	0.785	0.457	0.764	0.691	0.414	0.667	0.854	0.468
SVESPYGSVTF [NDRG2_Y47_T45S]	0.688	0.376	0.689	0.456	0.57	7.99	0.525	9.44	0.696	5.03	0.662	0.572	0.501	5.95	0.496	0.862
FQEKGYNKELR [CHRND_Y38]	0.882	0.485	0.814	0.471	0.45	0.335	0.382	0.376	0.74	0.351	0.675	0.57	0.45	0.378	0.519	0.268
GAVGNYSRGLA [MGMT_Y158_G160R]	0.632	0.39	0.933	0.406	0.401	0.377	0.353	0.358	0.453	0.395	0.456	0.38	0.5	0.383	0.465	0.397
SFGMVYEGNAR [INSR_Y1038]	0.798	0.536	0.879	0.41	0.616	0.526	0.323	0.377	0.775	0.784	0.629	0.672	0.479	0.966	0.474	0.413
MENFIYESMQY [CYP19A1_Y361_R365Q]	0.954	0.786	0.914	0.652	1.24	9.05	3.64	13.3	3.36	7.07	1.37	0.894	7.15	6.84	0.724	5.02
TDISLYPSGGT [TENM4_Y399_V396I]	0.616	0.436	0.661	0.457	0.528	0.414	0.394	0.39	0.84	0.398	0.637	0.657	0.46	0.391	0.536	0.632
EEALHYLTRVE [SET_Y119]	1.16	0.532	0.758	0.47	0.748	0.466	0.469	0.492	1.13	0.586	1.02	1	0.73	0.462	0.724	0.536
FGIAQYCCRMG [LRRK2_Y2023_YF]	0.836	0.936	1.26	0.614	1.34	0.423	1.25	0.467	0.797	0.777	0.908	0.625	0.751	0.417	0.584	6.66
HRGSLYLAIEY [TEK_Y899_Y897S]	0.501	0.375	0.646	0.581	2.14	0.58	0.834	0.853	2.15	0.798	1.87	2.2	0.819	0.734	1.3	0.776
KGSEGYLAATF [NF1_Y2503_YF]	0.847	0.474	0.766	0.444	0.634	0.501	0.514	0.45	0.658	0.416	0.654	0.709	0.41	0.564	0.549	0.402
